Results as given in patent publication US20250326826A1 (CENTRO DE INGENIER A GEN TICA Y BIOTECNOLOG A, published 2025).
Where two headings read alike, the source gives them in different places. Values belong to the binder of their own block, whether it stands above or below them.

Assays:
GST-hVEGF121 [1] = biological target: T1, GST-hVEGF121 (human, UniProt P15692-9 27-147); experiment: ELISA, coated GST-hVEGF
T1 construct: plate coating of the VEGF ELISAs; also called human VEGF; not shown: glutathione S-transferase (GST) fusion partner
T1 sequence (looked up): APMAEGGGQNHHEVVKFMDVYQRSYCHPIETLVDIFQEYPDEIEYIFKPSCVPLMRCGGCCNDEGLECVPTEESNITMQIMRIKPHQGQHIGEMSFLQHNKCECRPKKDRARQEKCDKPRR
Description: (§1) The 96-well plates were coated with 100 μL/well of a solution of GST-hVEGF121, GST-mVEGF120, or GST at a concentration of 20 μg/mL, or with a solution of VEGFKDR- at a concentration of 10 μg/mL, or hFGF-2 or mFGF-2 at a concentration of 5 μg/mL in 1×PBS for 16 hours at 4° C. After the plates were blocked with PBS-5% skim milk for one hour, 1:2 serial dilutions of the purified VHHs were added, starting at 2 μg/mL in PBS-0.5% skim milk. The plates were incubated for 1 hour at 37° C. and after several washes, the monoclonal antibody 9E10, specific for c-myc, was added. After one hour of incubation at 25° C. the plates were washed thoroughly. The binding of the fragment to the antigen in the solid phase was detected by the peroxidase activity using 100 μL/well of TMB. The reaction was stopped with 50 μL/well of stop solution, and absorbance values at 450 nm were determined in a microtiter plate reader.
SEQ ID NO: 18 and SEQ ID NO: 19, and the bivalent Nb-VV6 and Nb-FF2, with sequences identified as SEQ ID NO: 20 and SEQ ID NO: 21, were expressed and purified as described in the Example 1. […] The biological activity of the polypeptides was evaluated by ELISA for recognition of the VEGF and bFGF antigens, and by their ability to displace VEGF and bFGF binding to their respective VEGFR2 and FGFR1 receptors. […]

[2] = biological target: VEGF (soluble stimulus added to cell cultures); experiment: cell-based or functional assay
[3] = biological target: bFGF (soluble stimulus added to cell cultures); experiment: cell-based or functional assay
[4] = biological target: VEGF (soluble stimulus added to cell cultures); experiment: cell-based or functional assay; remark: listed apart in the source
[5] = biological target: Human VEGF (dendritic cell assay) (human, UniProt P15692-4 27-191, limits assumed); experiment: cell-based or functional assay
GST-hVEGF121 [6] = biological target: T1, GST-hVEGF121; experiment: ELISA, coated GST-hVEGF; remark: listed apart in the source
Description: as §1

GST-hVEGF121 [7] = biological target: T1, GST-hVEGF121; experiment: competition ELISA, coated GST-hVEGF, competitor Fc-VEGFR2
Description: (§2) The ability of VHHs to hinder receptors for binding to their ligand was assessed by ELISA, for which 96-well plates (NUNC, USA) were coated with GST-hVEGF or bFGF and blocked as described in the previous section. Serial 1:2 dilutions of the purified VHHs, from […] to […], were added and the plates and incubated for 1 h at 37° C. In this step, some wells were left where only PBS-milk was added. […] After 45 min incubation at 37° C., plates were washed with PBS-0.05% Tween. To detect receptor binding, HRP-conjugated anti-human IgG antibody was added, diluted 1:5000 in PBS-0.5% milk. After incubation for 1 h at 37° C., the plates were washed with PBS-Tween, and TMB was added. The reaction was stopped after 10 min. Wells incubated with the receptors without the addition of the antibody fragments were taken as reference for maximum binding in the absence of competitor. In this assay, in the case of inhibition of the VEGF/VEGFR axis, the CIGB166a antibody fragment was used as a positive control, and an anti-FGF polyclonal antibody was used for the FGF/FGFR axis. The percentage of inhibition of receptor binding to its ligand was calculated as follows: […]
The biological effect of VEGF is a consequence of its binding to two fundamental receptors (VEGFR1 and VEGFR2), so for a polypeptide that binds to VEGF to be effective in the therapeutic setting, it must block these interactions (Shibuya, Cell Structure and Function, 2001: 26: 25-35). The ability of Nb-V1 to compete with receptors 1 and 2 for binding to its ligand (VEGF) was assessed by solid phase ligand competition ELISA, as described above.

Recombinant human bFGF [8] = biological target: T2, Recombinant human bFGF (human, UniProt P09038 143-288, limits assumed); experiment: ELISA, coated human bFGF
T2 construct: Bought (Sigma); also called hFGF-2; human basic fibroblast growth factor

Recombinant human bFGF [9] = biological target: T2, Recombinant human bFGF; experiment: competition ELISA, coated bFGF, competitor Fc-FGFR1
Recombinant human bFGF [10] = biological target: T2, Recombinant human bFGF; experiment: ELISA, coated human bFGF; remark: listed apart in the source
Description: as §1
SEQ ID NO: 18 and SEQ ID NO: 19, and the bivalent Nb-VV6 and Nb-FF2, with sequences identified as SEQ ID NO: 20 and SEQ ID NO: 21, were expressed and purified as described in the Example 1. In all cases, the purity and identity of the proteins were verified by SDS-PAGE 12% and anti-polyhistidine Western Blot. […] The experimental mass of the polypeptides and the arrangement of the disulfide bridges were checked by ESI/MS-MS. The experimental and theoretical mass, for each polypeptide coincided, with errors less than 0.0015% in all cases, and the formation of intramolecular bridges between C22-C101 and C168-C247 was verified. […] The biological activity of the polypeptides was evaluated by ELISA for recognition of the VEGF and bFGF antigens, and by their ability to displace VEGF and bFGF binding to their respective VEGFR2 and FGFR1 receptors. […] Similarly, it was shown that the ability to displace the binding of antigens by their receptors was not affected.

Recombinant human bFGF [11] = biological target: T2, Recombinant human bFGF; experiment: competition ELISA, coated bFGF, competitor Fc-FGFR1; remark: listed apart in the source
Description: as §2

GST-hVEGF121 [12] = biological target: T1, GST-hVEGF121; experiment: ELISA, coated GST-hVEGF; remark: listed apart in the source
GST-hVEGF121 [13] = biological target: T1, GST-hVEGF121; experiment: competition ELISA, coated GST-hVEGF, competitor Fc-VEGFR2; remark: listed apart in the source

T2 sequence (P09038 143-288 limits assumed): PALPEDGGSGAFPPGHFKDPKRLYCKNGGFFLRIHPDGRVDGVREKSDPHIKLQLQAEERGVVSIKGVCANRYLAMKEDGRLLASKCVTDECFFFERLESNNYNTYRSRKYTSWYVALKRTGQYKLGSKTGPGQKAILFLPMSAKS
Chain of VEGF (soluble stimulus added to cell cultures) (P15692 whole entry): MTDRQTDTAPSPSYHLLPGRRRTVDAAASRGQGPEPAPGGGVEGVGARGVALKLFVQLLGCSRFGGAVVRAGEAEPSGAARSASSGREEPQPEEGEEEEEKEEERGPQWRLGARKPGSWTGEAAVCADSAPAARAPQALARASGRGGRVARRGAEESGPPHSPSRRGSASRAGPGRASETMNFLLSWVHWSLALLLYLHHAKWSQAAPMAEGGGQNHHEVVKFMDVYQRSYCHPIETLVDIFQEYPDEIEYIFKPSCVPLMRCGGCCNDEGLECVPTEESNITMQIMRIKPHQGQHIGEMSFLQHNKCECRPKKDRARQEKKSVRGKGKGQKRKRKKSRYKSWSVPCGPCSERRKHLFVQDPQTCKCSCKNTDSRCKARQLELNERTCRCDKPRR

B2: Nb-F3\cmycH6 (VHH)
VHH: QVQLVESGGGLVQPGGSLRLSCAASGTEDGRLLTLGGSWFRQAPGQGLEAVAAIGAGDRGGATYYADSVKGRFTISRDNSKNTLYLQMNSLRAEDTAVYYCTALYERQPQLAATKVARKWGQGTLVTVSS
notes: Nb-F3 without c-myc tracer peptide and histidine tag
EC50 (Recombinant human bFGF [8]): 11.5 nM
IC50 (Recombinant human bFGF [9]): 134 nM

B3: Nb-FV1 (bispecific antibody)
chain: QVQLVESGGGLVQPGGSLRLSCAASGTEDGRLLTLGGSWFRQAPGQGLEAVAAIGAGDRGGATYYADSVKGRFTISRDNSKNTLYLQMNSLRAEDTAVYYCTALYERQPQLAATKVARKWGQGTLVTVSSAHHSEDPSSKAPKAPAQVQLVESGGGLVQPGGSLRLSCAASGNSAEDRLYNSYTWFRQAPGQGLEAVAAISSHFSAGLTYYADSVKGRFTISRDNSKNTLYLQMNSLRAEDTAVYYCEITSHASHNDAWSTPRTVWGQGTLVTVSSAAAGSEQKLISEEDLNSHHHHHH
notes: Bispecific tandem VHH (bFGF and VEGF); with c-myc and histidine tag
IC50, proliferation of HDMEC cells +VEGF (5 ng/ml) [2]: 129 nM
IC50, proliferation of HDMEC cells +bFGF (10 ng/ml) [3]: 122 nM
PD1 expression (%) in CD8+ cells treated with VEGF, VHH 1 µg/mL [4]: 63%
PD1 expression (%) in CD8+ cells treated with VEGF, VHH 5 µg/mL [4]: 55%
PD1 expression (%) in CD8+ cells treated with VEGF, VHH 10 µg/mL [4]: 40%
CD86 (MFI) on dendritic cells +VEGF +LPS, VHH 1 µg/mL [5]: 2030 MFI
CD86 (MFI) on dendritic cells +VEGF +LPS, VHH 5 µg/mL [5]: 3200 MFI
CD86 (MFI) on dendritic cells +VEGF +LPS, VHH 10 µg/mL [5]: 17500 MFI
MHCII (MFI) on dendritic cells +VEGF +LPS, VHH 1 µg/mL [5]: 4980 MFI
MHCII (MFI) on dendritic cells +VEGF +LPS, VHH 5 µg/mL [5]: 6000 MFI
MHCII (MFI) on dendritic cells +VEGF +LPS, VHH 10 µg/mL [5]: 17500 MFI
EC50 (GST-hVEGF121 [6]): 4.59 nM
EC50 (Recombinant human bFGF [10]): 11.5 nM
IC50 (Recombinant human bFGF [11]): 131 nM
IC50 (GST-hVEGF121 [7]): 28.3 nM

B5: Nb-VV6\cmycH6 (VHH)
chain: QVQLVESGGGLVQPGGSLRLSCAASGNSAEDRLYNSYTWFRQAPGQGLEAVAAISSHFSAGLTYYADSVKGRFTISRDNSKNTLYLQMNSLRAEDTAVYYCEITSHASHNDAWSTPRTVWGQGTLVTVSSAHHSEDPSSKAPKAPAQVQLVESGGGLVQPGGSLRLSCAASGNSAQDRLYNSYTWFRQAPGQGLEAVAAISSHFSAGLTYYADSVKGRFTISRDNSKNTLYLQMNSLRAEDTAVYYCEITSHASHNDAWSTPRTVWGQGTLVTVSS
notes: Nb-VV6 without c-myc tracer peptide and histidine tag
EC50 (GST-hVEGF121 [12]): 1.78 nM
IC50 (GST-hVEGF121 [13]): 5.23 nM

Further lines, results first:

fold decrease of EC50 against Nb-V1 (GST-hVEGF121 [1]): 2 fold
IC50, proliferation of HDMEC cells +VEGF (5 ng/ml) [2]: 30 nM
IC50, proliferation of HDMEC cells +bFGF (10 ng/ml) [3]: > 6000 nM
PD1 expression (%) in CD8+ cells treated with VEGF, VHH 1 µg/mL [4]: 52%
PD1 expression (%) in CD8+ cells treated with VEGF, VHH 5 µg/mL [4]: 41%
PD1 expression (%) in CD8+ cells treated with VEGF, VHH 10 µg/mL [4]: 36%
CD86 (MFI) on dendritic cells +VEGF +LPS, VHH 1 µg/mL [5]: 4200 MFI
CD86 (MFI) on dendritic cells +VEGF +LPS, VHH 5 µg/mL [5]: 6520 MFI
CD86 (MFI) on dendritic cells +VEGF +LPS, VHH 10 µg/mL [5]: 18000 MFI
MHCII (MFI) on dendritic cells +VEGF +LPS, VHH 1 µg/mL [5]: 5110 MFI
MHCII (MFI) on dendritic cells +VEGF +LPS, VHH 5 µg/mL [5]: 11200 MFI
MHCII (MFI) on dendritic cells +VEGF +LPS, VHH 10 µg/mL [5]: 18700 MFI
EC50 (GST-hVEGF121 [6]): 1.9 nM
IC50 (GST-hVEGF121 [7]): 5.6 nM
B1: Nb-VV6 (VHH)
chain: QVQLVESGGGLVQPGGSLRLSCAASGNSAEDRLYNSYTWFRQAPGQGLEAVAAISSHFSAGLTYYADSVKGRFTISRDNSKNTLYLQMNSLRAEDTAVYYCEITSHASHNDAWSTPRTVWGQGTLVTVSSAHHSEDPSSKAPKAPAQVQLVESGGGLVQPGGSLRLSCAASGNSAQDRLYNSYTWFRQAPGQGLEAVAAISSHFSAGLTYYADSVKGRFTISRDNSKNTLYLQMNSLRAEDTAVYYCEITSHASHNDAWSTPRTVWGQGTLVTVSSAAAGSEQKLISEEDLNSHHHHHH
notes: Bivalent monospecific tandem VHH for VEGF, hinge spacer with cysteines replaced by alanines; with c-myc and histidine tag

IC50, proliferation of HDMEC cells +VEGF (5 ng/ml) [2]: 132 nM
IC50, proliferation of HDMEC cells +bFGF (10 ng/ml) [3]: 120 nM
EC50 (GST-hVEGF121 [6]): 4.49 nM
EC50 (Recombinant human bFGF [10]): 11.3 nM
IC50 (Recombinant human bFGF [11]): 136 nM
IC50 (GST-hVEGF121 [7]): 28.5 nM
B4: Nb-VF3 (bispecific antibody)
chain: QVQLVESGGGLVQPGGSLRLSCAASGNSAEDRLYNSYTWFRQAPGQGLEAVAAISSHFSAGLTYYADSVKGRFTISRDNSKNTLYLQMNSLRAEDTAVYYCEITSHASHNDAWSTPRTVWGQGTLVTVSSAHHSEDPSSKAPKAPAQVQLVESGGGLVQPGGSLRLSCAASGTEDGRLLTLGGSWFRQAPGQGLEAVAAIGAGDRGGATYYADSVKGRFTISRDNSKNTLYLQMNSLRAEDTAVYYCTALYERQPQLAATKVARKWGQGTLVTVSSAAAGSEQKLISEEDLNSHHHHHH
notes: Bispecific tandem VHH (VEGF and bFGF); with c-myc and histidine tag
